Assay results: patent publication US20240270846A1 (published 2024)
Where a chain is given by its changes, count along the chain named.

B1: dBBDu_186 / dBBDu_L096 (antibody, human IgG1, V domains shown)
VH: QVQLVESGGGLVQPGRSLRLSCAASGFTFSNAWMHWVRQAPGKGLEWVAQIKDRSNQYATYYAPSVKGRFTISRDDSKNSIYLQMNSLKTEDTAVYYCHYVHYAQASTVLPAFGVDAWGQGTTVTVSS
VL: DIVMTQSPLSLPVTPGEPASISCRTSQELVHINRYIFLHWYQQKPGQAPRLLIYKVYNRFQGVPDRFSGSGSGTDFTLKISRVEAEDVGVYYCAQGTSVPYTFGQGTKLEIK
notes: Tested as IgG (human IgG1 constant region, kappa light chain); also called dBBDu186/L096
B2: dBBDu_167 / dBBDu_L091 (antibody, human IgG1, V domains shown)
VH: B1 VH with R54K, S55G, Q57L, T60A, Q105S, S107G, T108G, V109G, A112G
VL: DIVMTQSPLSLPVTPGEPASISCSASESLLHNNRHTYLHWYQQKPGQAPRLLIYRVSNRFNGVPDRFSGSGSGTDFTLKISRVEAEDVGVYYCGQGTQVPFTFGQGTKLEIK
notes: Tested as IgG (human IgG1 constant region, kappa light chain); also called dBBDu167/L091
B3: dBBDu_183 / dBBDu_L063 (antibody, V domains shown)
VH: B1 VH with R54K, S55G, Q57A, T60A, Q105S
VL: B1 VL with T25S, I32T, Y35H, I36T, F37Y, Y57S, Q61P, S98Q, Y101F
notes: Tested as IgG (Fab genes converted into IgG format, human IgG1 constant region, kappa light chain); also called dBBDu183/L063; dBBDu_183/L063
B4: dBBDu_183 / dBBDu_L067 (antibody, human IgG1, V domains shown)
VH: B1 VH with R54K, S55G, Q57A, T60A, Q105S
VL: B2 VL with S24Q, A25S, L30V, N32V, R55K, S57Y, N61P, G94A, Q98S
notes: Tested as IgG (human IgG1 constant region, kappa light chain); also called dBBDu183/L067
B5: dBBDu_183 / dBBDu_L072 (antibody, human IgG1, V domains shown)
VH: B1 VH with R54K, S55G, Q57A, T60A, Q105S
VL: B1 VL with R24Q, T25A, I32M, Y35N, I36T, F37Y, Y57S, Q61P, Y101F
notes: Tested as IgG (human IgG1 constant region, kappa light chain); also called dBBDu183/L072; H183L072
B6: GPC3 ERY22-B (bispecific antibody, human IgG1, kappa, L234A L235A, N297A)
heavy 1: DIVMTQSPLSLPVTPGEPASISCRSSQSLVHSNRNTYLHWYQQKPGQAPRLLIYKVSNRFSGVPDRFSGSGSGTDFTLKISRVEAEDVGVYYCSQNTHVPPTFGQGTKLEIKSSASTKGPSVFPLAPSSKSTSGGTAALGCLVKDYFPEPVTVSWNSGALTSGVHTFPAVLQSSGLYSLSSVVTVPSSSLGTQTYICNVNHKPSNTKVDKKVEPKSCDKTHTCPPCPAPEAAGGPSVFLFPPKPKDTLMISRTPEVTCVVVDVSHEDPEVKFNWYVDGVEVHNAKTKPREEQYASTYRVVSVLTVLHQDWLNGKEYKCKVSNKALPAPIEKTISKAKGQPREPQVCTLPPSRDELTKNQVSLWCLVKGFYPSDIAVEWESNGQPENNYKTTPPVLDSDGSFFLYSKLTVDKSRWQQGNVFSCSVMHEALHNHYTQKSLSLSPHHHHHHHH
light 1: QVQLVQSGAEVKKPGASVKVSCKASGYTFTDYEMHWIRQPPGQGLEWIGAIDPKTGDTAYSQKFKGRVTLTADKSTSTAYMELSSLTSEDTAVYYCTRFYSYTYWGQGTLVTVSSASVAAPSVFIFPPSDEQLKSGTASVVCLLNNFYPREAKVQWKVDNALQSGNSQESVTEQDSKDSTYSLSSTLTLSKADYEKHKVYACEVTHQGLSSPVTKSFNRGEC
heavy 2: QVQLQQWGAGLLKPSETLSLTCAVYGGSFSGYYWSWIRQSPEKGLEWIGEINHGGYVTYNPSLESRVTISVDTSKNQFSLKLSSVTAADTAVYYCARDYGPGNYDWYFDLWGRGTLVTVSSASTKGPSVFPLAPSSKSTSGGTAALGCLVKDYFPEPVTVSWNSGALTSGVHTFPAVLQSSGLYSLSSVVTVPSSSLGTQTYICNVNHKPSNTKVDKKVEPKSCDKTHTCPPCPAPEAAGGPSVFLFPPKPKDTLMISRTPEVTCVVVDVSHEDPEVKFNWYVDGVEVHNAKTKPREEQYASTYRVVSVLTVLHQDWLNGKEYKCKVSNKALPAPIEKTISKAKGQPREPQVYTLPPSRCELTKNQVSLSCAVKGFYPSDIAVEWESNGQPENNYKTTPPVLDSDGSFFLVSKLTVDKSRWQQGNVFSCSVMHEALHNHYTQKSLSLSP
light 2: not shown
B7: GPC3 ERY22-dBBDu_189/L119 (bispecific antibody, human IgG1, kappa, L234A L235A, N297A)
heavy 1: B6 heavy 1
light 1: B6 light 1
heavy 2: QVQLVESGGGLVQPGRSLRLSCAASGFTFSNAWMHWVRQAPGKGLEWIAQIKDRSNQYATYYAPSVKGRFTISRDDSKNSIYLQMNSLKTEDTAVYYCHYVHYAQASSLLPSFGVDAWGQGTTVTVSSASTKGPSVFPLAPSSKSTSGGTAALGCLVKDYFPEPVTVSWNSGALTSGVHTFPAVLQSSGLYSLSSVVTVPSSSLGTQTYICNVNHKPSNTKVDKKVEPKSCDKTHTCPPCPAPEAAGGPSVFLFPPKPKDTLMISRTPEVTCVVVDVSHEDPEVKFNWYVDGVEVHNAKTKPREEQYASTYRVVSVLTVLHQDWLNGKEYKCKVSNKALPAPIEKTISKAKGQPREPQVYTLPPSRCELTKNQVSLSCAVKGFYPSDIAVEWESNGQPENNYKTTPPVLDSDGSFFLVSKLTVDKSRWQQGNVFSCSVMHEALHNHYTQKSLSLSPDYKDDDDK
light 2: DIVMTQSPLSLPVTPGEPASISCTASQELVHINRFIFLHWYQQKPGQAPRLLIYKVSNRFIGVPDRFSGSGSGTDFTLKISRVEAEDVGVYYCAQGSQVPFTFGQGTKLEIKRTVAAPSVFIFPPSDEQLKSGTASVVCLLNNFYPREAKVQWKVDNALQSGNSQESVTEQDSKDSTYSLSSTLTLSKADYEKHKVYACEVTHQGLSSPVTKSFNRGEC
B8: GPC3 ERY22-dBBDu_186/L106 (bispecific antibody, human IgG1, kappa, L234A L235A, N297A)
heavy 1: B6 heavy 1
light 1: B6 light 1
heavy 2: B7 heavy 2 with I48V, S108T, L109V, S112A
light 2: B7 light 2 with T24S, A25T, Q27E, V30L, S57A, I61M
B9: GPC3 ERY22-dBBDu_186/L098 (bispecific antibody, human IgG1, kappa, L234A L235A, N297A)
heavy 1: B6 heavy 1
light 1: B6 light 1
heavy 2: B7 heavy 2 with I48V, S108T, L109V, S112A
light 2: B7 light 2 with T24A, Q27E, F35Y
B10: GPC3 ERY22-dBBDu_186/L096 (bispecific antibody, human IgG1, kappa, L234A L235A, N297A)
heavy 1: B6 heavy 1
light 1: B6 light 1
heavy 2: B7 heavy 2 with I48V, S108T, L109V, S112A
light 2: B7 light 2 with T24R, A25T, F35Y, S57Y, I61Q, S97T, Q98S, F101Y
B11: GPC3 ERY22-dBBDu_167/L091 (bispecific antibody, human IgG1, kappa, L234A L235A, N297A)
heavy 1: B6 heavy 1
light 1: B6 light 1
heavy 2: B7 heavy 2 with I48V, R54K, S55G, Q57L, T60A, Q105S, S107G, S108G, L109G, S112G
light 2: DIVMTQSPLSLPVTPGEPASISCSASESLLHNNRHTYLHWYQQKPGQAPRLLIYRVSNRFNGVPDRFSGSGSGTDFTLKISRVEAEDVGVYYCGQGTQVPFTFGQGTKLEIKRTVAAPSVFIFPPSDEQLKSGTASVVCLLNNFYPREAKVQWKVDNALQSGNSQESVTEQDSKDSTYSLSSTLTLSKADYEKHKVYACEVTHQGLSSPVTKSFNRGEC
B12: GPC3 ERY22-dBBDu_183/L063 (bispecific antibody, human IgG1, kappa, L234A L235A, N297A)
heavy 1: B6 heavy 1
light 1: B6 light 1
heavy 2: B7 heavy 2 with I48V, R54K, S55G, Q57A, T60A, Q105S, S108T, L109V, S112A
light 2: B7 light 2 with T24R, A25S, I32T, F35H, I36T, F37Y, I61P, S97T
B13: GPC3 ERY22-dBBDu_189/L116 (bispecific antibody, human IgG1, kappa, L234A L235A, N297A)
heavy 1: B6 heavy 1
light 1: B6 light 1
heavy 2: B7 heavy 2
light 2: B7 light 2 with T24S, A25S, I32A, F35Q, F37Y, S57A, I61P, S97T
B14: GPC3 ERY22-dBBDu_183/L072 (bispecific antibody, human IgG1, kappa, L234A L235A, N297A)
heavy 1: B6 heavy 1
light 1: B6 light 1
heavy 2: B7 heavy 2 with I48V, R54K, S55G, Q57A, T60A, Q105S, S108T, L109V, S112A
light 2: B7 light 2 with T24Q, I32M, F35N, I36T, F37Y, I61P, S97T, Q98S

molecular target: T1, human CD3ed (human, UniProt P07766 23-126; P04234 22-105, limits assumed); test: SPR Biacore T200, IgG captured on protein A, antigen as analyte, 25 C;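 note: antigens flowed over a CM3 chip for 120 s association, KD derived from ka and kd, running buffer (ACES, NaCl, Tween20, pH 7.4) served as blank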
T1 construct: The construct injected as 'human CD3ed' in the Biacore assay is not defined; also called human CD3 epsilon/delta heterodimer
T1 sequence (P07766 23-126 limits assumed, chain 1 of 2): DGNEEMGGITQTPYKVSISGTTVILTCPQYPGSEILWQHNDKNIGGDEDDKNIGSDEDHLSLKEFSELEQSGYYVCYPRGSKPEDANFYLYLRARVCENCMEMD
T1 sequence (P04234 22-105 limits assumed, chain 2 of 2): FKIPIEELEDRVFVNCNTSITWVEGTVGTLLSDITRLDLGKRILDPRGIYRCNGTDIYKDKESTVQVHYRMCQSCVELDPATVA
Description: (§1) Sensor chip CM3 (GE Healthcare) was immobilized with an appropriate amount of sure protein A (GE Healthcare) by amine coupling. The selected antibodies were captured by the chip to allow interaction to human CD3ed, human CD137 and cyno CD137 as an antigen. The running buffer used was 20 mmol/l ACES, 150 mmol/l NaCl, 0.05% (w/v) Tween20, pH 7.4. All measurements were carried out at 25 degrees C. The antigens were diluted using the running buffer.
(§2) Diluted antigen solutions and the running buffer which is the blank were loaded at a flow rate of 30 micro L/min for 120 seconds to allow each of the antigens to interact with the antibody captured on the sensor chip. […] Next, to regenerate the sensor chip, 10 mmol/L glycine-HCl, pH 1.5 was loaded at a flow rate of 30 micro L/min for 30 seconds and 50 mmol/L NaOH was loaded at a flow rate 30 micro L/min for 30 seconds.
(§3) Kinetic parameters such as the association rate constant ka (1/Ms) and the dissociation rate constant kd (1/s) were calculated based on the sensorgrams obtained by the measurements. The dissociation constant KD(M) was calculated from these constants. Each parameter was calculated using the Biacore T200 Evaluation Software (GE Healthcare).

| Binder | Kd | koff | kon |
| --- | --- | --- | --- |
| B1 | 9.11 µM | 0.102 s⁻¹ | 11200 M⁻¹ s⁻¹ |
| B2 | 0.413 µM | 0.0216 s⁻¹ | 52400 M⁻¹ s⁻¹ |
| B3 | 0.276 µM | 0.0157 s⁻¹ | 56900 M⁻¹ s⁻¹ |
| B4 | 0.217 µM | 0.0193 s⁻¹ | 88900 M⁻¹ s⁻¹ |
| B5 | 0.217 µM | 0.00785 s⁻¹ | 36100 M⁻¹ s⁻¹ |

Molecular target: T2, cynomolgus monkey CD137 (cynomolgus monkey, UniProt Q07011 24-186 (human entry), limits assumed)
T2 construct: Soluble analyte in the Biacore assay; also called cyno CD137
T2 chain: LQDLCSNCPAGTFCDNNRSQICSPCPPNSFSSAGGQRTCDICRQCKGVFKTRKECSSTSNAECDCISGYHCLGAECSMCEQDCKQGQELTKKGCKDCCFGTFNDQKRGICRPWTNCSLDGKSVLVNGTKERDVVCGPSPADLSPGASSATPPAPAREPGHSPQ
Test: as above
Description: as §1, §2, §3

| Binder | Kd | koff | kon |
| --- | --- | --- | --- |
| B1 | 205 µM | 0.00223 s⁻¹ |  |
| B2 | 4.17 µM | 0.0101 s⁻¹ | 2430 M⁻¹ s⁻¹ |
| B3 | 3.12 µM | 0.00457 s⁻¹ | 1470 M⁻¹ s⁻¹ |
| B4 | 6.2 µM | 0.00813 s⁻¹ | 1310 M⁻¹ s⁻¹ |
| B5 | 4.87 µM | 0.00593 s⁻¹ | 1220 M⁻¹ s⁻¹ |

molecular target: human CD137 expressed constitutively on the B cell strain HDLM-2 (human, UniProt Q07011 24-255); test: cell-based or functional assay
Sequence (Q07011 24-255): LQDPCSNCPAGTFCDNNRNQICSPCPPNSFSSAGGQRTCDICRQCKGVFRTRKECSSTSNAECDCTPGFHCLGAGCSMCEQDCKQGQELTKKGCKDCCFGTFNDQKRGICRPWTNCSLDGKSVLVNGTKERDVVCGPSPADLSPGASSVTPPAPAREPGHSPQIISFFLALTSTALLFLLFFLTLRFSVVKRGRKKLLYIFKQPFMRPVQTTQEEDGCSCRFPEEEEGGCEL

| Binder | Agonistic activity compared to B, antibody 6 µg/mL | Agonistic activity compared to B, antibody 30 µg/mL | Agonistic activity compared to Ctrl, antibody 6 µg/mL | Agonistic activity compared to Ctrl, antibody 30 µg/mL | hIL-6 (pg/mL), antibody 6 µg/mL | hIL-6 (pg/mL), antibody 30 µg/mL |
| --- | --- | --- | --- | --- | --- | --- |
| B6 | 100% | 100% | 347% | 380% | 4520 pg/mL | 4340 pg/mL |
| B7 | 6.92% | 20.4% | 24% | 77.3% | 1260 pg/mL | 1610 pg/mL |
| B8 | 13.2% | 19.4% | 45.8% | 73.6% | 1480 pg/mL | 1570 pg/mL |
| B9 | 13.9% | 24.6% | 48.3% | 93.5% | 1500 pg/mL | 1750 pg/mL |
| B10 | 19% | 24.2% | 66.1% | 91.7% | 1680 pg/mL | 1740 pg/mL |
| B11 | -2.21% | 1.1% | -7.68% | 4.19% | 935 pg/mL | 944 pg/mL |
| B12 | -1.27% | 6.51% | -4.41% | 24.7% | 968 pg/mL | 1130 pg/mL |
| B13 | 8.28% | 19.2% | 28.7% | 72.9% | 1300 pg/mL | 1570 pg/mL |
| B14 | 3.21% | 15.8% | 11.1% | 59.8% | 1130 pg/mL | 1450 pg/mL |
